In the experiment the target is F-actin (filamentous rabbit skeletal muscle actin) (rabbit), P68135. In words: co-sedimentation. The settings on record: remark: other sources report otherwise.

The text below walks through data of article PMC3642092.

B1: utrophin actin binding domain, utrophin residues 1-261 (UTR261), wildtype, P46939 1-261 (domain or fragment)
chain: MAKYGEHEASPDNGQNEFSDIIKSRSDEHNDVQKKTFTKWINARFSKSGKPPINDMFTDLKDGRKLLDLLEGLTGTSLPKERGSTRVHALNNVNRVLQVLHQNNVELVNIGGTDIVDGNHKLTLGLLWSIILHWQVKDVMKDVMSDLQQTNSEKILLSWVRQTTRPYSQVNVLNFTTSWTDGLAFNAVLHRHKPDLFSWDKVVKMSPIERLEHAFSKAQTYLGIEKLLDPEDVAVQLPDKKSIIMYLTSLFEVLPQQVTID
Molecule B1 returned a Kd of 19.2 µM and a stoichiometry N of 1.

Broadly, the Kd is the constant that tells how readily two partners part at equilibrium. In general, stoichiometry N refers to the number of molecules, sites or subunits per partner or assembly.
